T1: human IL-31R (IL-31 receptor) expressed on BaF cells (BaF/hIL-31R cells) (human, UniProt Q8NI17 20-732)
T1 sequence (looked up): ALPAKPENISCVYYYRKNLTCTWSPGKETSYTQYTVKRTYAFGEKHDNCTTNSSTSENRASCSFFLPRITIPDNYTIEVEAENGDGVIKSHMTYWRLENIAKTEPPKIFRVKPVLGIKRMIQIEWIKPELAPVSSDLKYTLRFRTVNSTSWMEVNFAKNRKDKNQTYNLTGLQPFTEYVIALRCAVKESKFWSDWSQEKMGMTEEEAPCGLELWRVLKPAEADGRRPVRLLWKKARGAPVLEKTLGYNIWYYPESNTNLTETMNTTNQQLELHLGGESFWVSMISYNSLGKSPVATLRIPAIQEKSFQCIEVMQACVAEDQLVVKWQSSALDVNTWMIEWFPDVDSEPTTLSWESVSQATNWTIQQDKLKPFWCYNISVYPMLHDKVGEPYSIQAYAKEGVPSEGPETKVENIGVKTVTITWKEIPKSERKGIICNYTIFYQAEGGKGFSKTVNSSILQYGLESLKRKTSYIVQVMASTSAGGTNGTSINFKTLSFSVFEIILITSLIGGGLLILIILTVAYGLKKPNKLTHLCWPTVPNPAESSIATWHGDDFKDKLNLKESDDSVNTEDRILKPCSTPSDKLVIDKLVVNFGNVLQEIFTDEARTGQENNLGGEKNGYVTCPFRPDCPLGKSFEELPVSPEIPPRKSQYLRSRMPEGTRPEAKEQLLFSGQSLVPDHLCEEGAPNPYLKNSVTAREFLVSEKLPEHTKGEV


molecular target: T1, human IL-31R (IL-31 receptor) expressed …; experiment: cell-based or functional assay

| Binder | Relative biological activity compared to CIM331 reference material (%); inhibition of IL-31-dependent proliferation of BaF/hIL-31R cells [%] | Relative biological activity compared to main peak (%); inhibition of IL-31-dependent proliferation of BaF/hIL-31R cells [%] |
| --- | --- | --- |
| nemolizumab AE-HPLC fraction, peak b8 (Pre-Region 2), predominantly the succinimide form (Asu103 variant) (antibody, V domains shown, Asp103 (Kabat numbering position 99) altered to a succinimide residue (Asu103) at a ratio of 54.0% on peptide basis; Asp99 (Kabat 95) to succinimide 2.7%) VH: QVQLVQSGAEVKKPGASVKVSCKASGYTFTGYIMNWVRQAPGQGLEWMGLINPYNGGTDYNPQFQDRVTITADKSTSTAYMELSSLRSEDTAVYYCARDGYDDGPYTLETWGQGTLVTVSS VL: DIQMTQSPSSLSASVGDRVTITCQASEDIYSFVAWYQQKPGKAPKLLIYNAQTEAQGVPSRFSGSGSGTDFTLTISSLQPEDFATYYCQHHYDSPLTFGGGTKVEIKR | 23 | 21 |
| nemolizumab AE-HPLC fraction, peaks b2 + b3 (Pre-Region 1) (antibody, V domains shown, Asu103 in HC; ratio not given) VH: QVQLVQSGAEVKKPGASVKVSCKASGYTFTGYIMNWVRQAPGQGLEWMGLINPYNGGTDYNPQFQDRVTITADKSTSTAYMELSSLRSEDTAVYYCARDGYDDGPYTLETWGQGTLVTVSS VL: DIQMTQSPSSLSASVGDRVTITCQASEDIYSFVAWYQQKPGKAPKLLIYNAQTEAQGVPSRFSGSGSGTDFTLTISSLQPEDFATYYCQHHYDSPLTFGGGTKVEIKR | 73 | 66 |
| nemolizumab AE-HPLC fraction, peak b1 (Pre-Region 1), isoAsp form (antibody, V domains shown, IsoAsp in CDR (Asp99/102/103) in HC, site not identified: two isoAsp residue-containing peptides at 11.6% and 2.7%; Asu99 1.1%, Asu102 0.2%, Asu103 4.7%) VH: QVQLVQSGAEVKKPGASVKVSCKASGYTFTGYIMNWVRQAPGQGLEWMGLINPYNGGTDYNPQFQDRVTITADKSTSTAYMELSSLRSEDTAVYYCARDGYDDGPYTLETWGQGTLVTVSS VL: DIQMTQSPSSLSASVGDRVTITCQASEDIYSFVAWYQQKPGKAPKLLIYNAQTEAQGVPSRFSGSGSGTDFTLTISSLQPEDFATYYCQHHYDSPLTFGGGTKVEIKR | 45 | 41 |
| nemolizumab AE-HPLC fraction, peaks a2 + a3 (Post-Region) (antibody, V domains shown) VH: QVQLVQSGAEVKKPGASVKVSCKASGYTFTGYIMNWVRQAPGQGLEWMGLINPYNGGTDYNPQFQDRVTITADKSTSTAYMELSSLRSEDTAVYYCARDGYDDGPYTLETWGQGTLVTVSS VL: DIQMTQSPSSLSASVGDRVTITCQASEDIYSFVAWYQQKPGKAPKLLIYNAQTEAQGVPSRFSGSGSGTDFTLTISSLQPEDFATYYCQHHYDSPLTFGGGTKVEIKR | 110 | 100 |
| nemolizumab AE-HPLC fraction, peaks b4 + b5 + b6 + b7 (Pre-Region 2) (antibody, V domains shown, Asu103 in HC (succinimide at Asp103); ratio not given) VH: QVQLVQSGAEVKKPGASVKVSCKASGYTFTGYIMNWVRQAPGQGLEWMGLINPYNGGTDYNPQFQDRVTITADKSTSTAYMELSSLRSEDTAVYYCARDGYDDGPYTLETWGQGTLVTVSS VL: DIQMTQSPSSLSASVGDRVTITCQASEDIYSFVAWYQQKPGKAPKLLIYNAQTEAQGVPSRFSGSGSGTDFTLTISSLQPEDFATYYCQHHYDSPLTFGGGTKVEIKR | 89 | 80 |
| nemolizumab AE-HPLC fraction, peak a5 (Post-Region) (antibody, V domains shown, Deamidation at Asn55 in HC; ratio not given) VH: QVQLVQSGAEVKKPGASVKVSCKASGYTFTGYIMNWVRQAPGQGLEWMGLINPYNGGTDYNPQFQDRVTITADKSTSTAYMELSSLRSEDTAVYYCARDGYDDGPYTLETWGQGTLVTVSS VL: DIQMTQSPSSLSASVGDRVTITCQASEDIYSFVAWYQQKPGKAPKLLIYNAQTEAQGVPSRFSGSGSGTDFTLTISSLQPEDFATYYCQHHYDSPLTFGGGTKVEIKR | 88 | 79 |
| nemolizumab AE-HPLC fraction, peak a4 (Post-Region) (antibody, V domains shown) VH: QVQLVQSGAEVKKPGASVKVSCKASGYTFTGYIMNWVRQAPGQGLEWMGLINPYNGGTDYNPQFQDRVTITADKSTSTAYMELSSLRSEDTAVYYCARDGYDDGPYTLETWGQGTLVTVSS VL: DIQMTQSPSSLSASVGDRVTITCQASEDIYSFVAWYQQKPGKAPKLLIYNAQTEAQGVPSRFSGSGSGTDFTLTISSLQPEDFATYYCQHHYDSPLTFGGGTKVEIKR | 90 | 82 |
| nemolizumab AE-HPLC fraction, peak a6 (Post-Region) (antibody, V domains shown, Deamidation at Asn55 in the CDRs of the heavy chain, 14.9%) VH: QVQLVQSGAEVKKPGASVKVSCKASGYTFTGYIMNWVRQAPGQGLEWMGLINPYNGGTDYNPQFQDRVTITADKSTSTAYMELSSLRSEDTAVYYCARDGYDDGPYTLETWGQGTLVTVSS VL: DIQMTQSPSSLSASVGDRVTITCQASEDIYSFVAWYQQKPGKAPKLLIYNAQTEAQGVPSRFSGSGSGTDFTLTISSLQPEDFATYYCQHHYDSPLTFGGGTKVEIKR | 94 | 85 |
| nemolizumab AE-HPLC fraction, peak a1 (Post-Region) (antibody, V domains shown, Deamidation at Asn384 in HC; ratio not given) VH: QVQLVQSGAEVKKPGASVKVSCKASGYTFTGYIMNWVRQAPGQGLEWMGLINPYNGGTDYNPQFQDRVTITADKSTSTAYMELSSLRSEDTAVYYCARDGYDDGPYTLETWGQGTLVTVSS VL: DIQMTQSPSSLSASVGDRVTITCQASEDIYSFVAWYQQKPGKAPKLLIYNAQTEAQGVPSRFSGSGSGTDFTLTISSLQPEDFATYYCQHHYDSPLTFGGGTKVEIKR | 110 | 100 |

From US20250163163A1 (Chugai, published 2025)
